# Data: article PMC9561264, “Direct hOGG1-Myc interactions inhibit hOGG1 catalytic activity and recruit Myc to its promoters under oxidative stress”
# B1: oxoG 48 bp (EMSA/FP) (dsDNA)
# DNA 1: GCATGCCTCGAGTCTAGAGGTACCAGATCTGATCCTCTAGAGTCGACC
# DNA 2: GGTCGACTCTAGAGGATCAGATCTGGTACCTCTAGACTCGAGGCATGC
# modifications: 8-oxoguanine at position 10 of strand 1 (written G)
# B2: undamaged (nsp) 48 bp (dsDNA)
# DNA 1: GCATGCCTCGAGTCTAGAGGTACCAGATCTGATCCTCTAGAGTCGACC
# DNA 2: GGTCGACTCTAGAGGATCAGATCTGGTACCTCTAGACTCGAGGCATGC
# Tests used:
# Conditions in all cases: protein: recombinant; tags: N-terminal His6 (removed by protease where required); label: 5' AF647 (FP) or Cy3 (EMSA) on bottom strand; blunt
# hOGG1 wild type [1] = biological target: T1, hOGG1 wild type (human, UniProt O15527 1-345); assay: fluorescence polarisation; reducing; FP at 25°C with 5 nM labelled DNA; EMSA room temp 30 min, 15% native PAGE 0.5x TBE 4°C; interaction buffer 20 mM Tris-HCl pH 7.6, 200 mM NaCl (Fig. S12); reducing (5 mM DTT in EMSA) or oxidising (pre-oxidised hOGG1)
# hOGG1 wild type [2] = biological target: T1, hOGG1 wild type; assay: fluorescence polarisation; oxidising, pre-oxidised hOGG1; FP at 25°C with 5 nM labelled DNA; EMSA room temp 30 min, 15% native PAGE 0.5x TBE 4°C; interaction buffer 20 mM Tris-HCl pH 7.6, 200 mM NaCl (Fig. S12); reducing (5 mM DTT in EMSA) or oxidising (pre-oxidised hOGG1)
# hOGG1 wild type [3] = biological target: T1, hOGG1 wild type; assay: fluorescence polarisation; oxidising; FP at 25°C with 5 nM labelled DNA; EMSA room temp 30 min, 15% native PAGE 0.5x TBE 4°C; interaction buffer 20 mM Tris-HCl pH 7.6, 200 mM NaCl (Fig. S12); reducing (5 mM DTT in EMSA) or oxidising (pre-oxidised hOGG1)
# T1 sequence (O15527 whole entry): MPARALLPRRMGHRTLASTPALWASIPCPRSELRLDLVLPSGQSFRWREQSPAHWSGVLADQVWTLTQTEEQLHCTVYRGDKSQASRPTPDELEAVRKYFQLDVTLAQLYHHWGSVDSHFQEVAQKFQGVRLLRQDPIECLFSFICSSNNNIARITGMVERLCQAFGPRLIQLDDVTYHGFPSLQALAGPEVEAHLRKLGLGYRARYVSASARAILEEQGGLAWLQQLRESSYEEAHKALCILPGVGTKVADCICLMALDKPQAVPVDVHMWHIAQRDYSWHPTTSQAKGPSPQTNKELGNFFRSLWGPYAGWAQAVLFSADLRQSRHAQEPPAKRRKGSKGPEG
binder,measurement,setting,value
B1,Kd,hOGG1 wild type [1],66 ± 5 nM
same,Kd,hOGG1 wild type [2],140 ± 9 nM
B2,Kd,hOGG1 wild type [1],252 ± 43 nM
same,Kd,hOGG1 wild type [3],250 ± 18 nM
